In article PMC9352930:
pKd: −log10 of the molar value.

Legend:
[1] = target: EWEµH fusion protein (EWE fused to FH CCP2-4 and CCP19-20) (human); test: BLI; kinetics: EWE, EWEµH or EWEnH held on anti-penta his (His1K) biosensors, dilution series of C3b or iC3b; 20 mM HEPES pH 7.5, 150 mM NaCl, 30°C; 1:1 model
[2] = target: EWEnH fusion protein (EWE fused to FH CCP2-4) (human); test: as above

iC3b (domain or fragment)
pKd [1]: 8.54
pKd [2]: 8.15

C3b (proteolytic fragment of complement component C3) (from UniProt P01024 749-1663; P01024 749-1663) (domain or fragment)
pKd [1]: 9.40
pKd [2]: 8.05
